Laboratory results taken from publication PMC10897489 (2024).

Target: reported 23mer NSP3 peptide from alphaviruses
Assay: ITC

B1: FXR1 1–122 (domain or fragment)
chain: not shown
- Kd: 19.4 µM
